# ± gives the standard deviation of the averaged measurements.
# How the values were obtained:
# Saccharomyces cerevisiae [1] = test: protein stability index of tFT-peptide fusion (C-terminal peptide) (PSI (0-1 scale)); higher = more stable (slower turnover); conditions: genetic background: wild type; temperature: 30 C
# Saccharomyces cerevisiae [2] = test: as above
# Description: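 MPS profiling in S. cerevisiae of the tFT-X12 degron library: putative degron peptides plus stable controls, 12 aa, fused to the C-terminus of a sfGFP-mCherry timer. Cells are FACS-sorted into 8 mCherry/sfGFP bins and deep-sequenced. PSI runs from 0 (unstable) to 1 (stable). Backgrounds are wild type, das1Δ and doa10Δ at 30 °C, and wild type, das1Δ, cdc34-1 and cdc53-1 at 37 °C; 2-3 technical replicates each.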
# [3] = genetic background: cdc34-1, temperature: 37 C
# [4] = genetic background: cdc53-1, temperature: 37 C
# [5] = genetic background: das1 deletion, temperature: 30 C
# [6] = genetic background: das1 deletion, temperature: 37 C
# [7] = genetic background: doa10 deletion, temperature: 30 C
# [8] = genetic background: wild type, temperature: 30 C
# [9] = genetic background: wild type, temperature: 37 C
# 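Note: PSI is a weighted mean of sequencing reads over stability bins, variants kept only with over 10 reads, mCherry proximal and sfGFP distal, peptide attached via GGGS linker.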
Sequence,protein stability index (Saccharomyces cerevisiae [1]),protein stability index (Saccharomyces cerevisiae [2]; [3]),protein stability index (Saccharomyces cerevisiae [2]; [4]),protein stability index (Saccharomyces cerevisiae [2]; [5]),protein stability index (Saccharomyces cerevisiae [2]; [6]),protein stability index (Saccharomyces cerevisiae [2]; [7]),protein stability index (Saccharomyces cerevisiae [2]; [8]),protein stability index (Saccharomyces cerevisiae [2]; [9])
GGGGLRVVVWLV,0.211 ± 0.049,0.534 ± 0.032,0.647 ± 0.022,0.501 ± 0.021,0.6625 ± 0.0052,0.111 ± 0.011,0.124 ± 0.018,0.15 ± 0.01
GGRLGRAGGGGR,0.639 ± 0.22,0.633 ± 0.026,0.7243 ± 0.0029,0.642 ± 0.024,0.7168 ± 0.00089,0.66 ± 0.026,0.6472 ± 0.0025,0.68996 ± 0.00034
GGVVLVVVFCCV,0.42 ± 0.13,0.165 ± 0.0053,0.34 ± 0.02,0.217 ± 0.025,0.352 ± 0.01,0.18 ± 0.015,0.204 ± 0.029,0.3395 ± 0.00053
GHFILFWVFCFM,0.369 ± 0.024,0.316 ± 0.058,0.39 ± 0.014,0.31 ± 0.046,0.453 ± 0.031,0.254 ± 0.0053,0.303 ± 0.023,0.409 ± 0.024
GHSALWQVPRLM,0.474 ± 0.015,0.697 ± 0.053,0.733 ± 0.014,0.65 ± 0.048,0.7535 ± 0.0069,0.26 ± 0.013,0.29 ± 0.0041,0.574 ± 0.023
GLCGVVVGCWVR,0.397 ± 0.014,0.395 ± 0.017,0.417 ± 0.017,0.286 ± 0.027,0.484 ± 0.016,0.293 ± 0.011,0.283 ± 0.021,0.4657 ± 0.0044
GLDLLTKFSKEC,0.465 ± 0.034,0.678 ± 0.049,0.734 ± 0.036,0.617 ± 0.02,0.741 ± 0.015,0.291 ± 0.027,0.33 ± 0.015,0.585 ± 0.011
GLFFLCLLSMCF,0.384 ± 0.061,0.34 ± 0.012,0.303 ± 0.021,0.306 ± 0.029,0.423 ± 0.023,0.336 ± 0.014,0.29 ± 0.029,0.396 ± 0.0071
GLNKGKYIKLYT,0.558 ± 0.089,0.68 ± 0.021,0.756 ± 0.017,0.635 ± 0.035,0.733 ± 0.08,0.4605 ± 0.0033,0.486 ± 0.0097,0.641 ± 0.034
GLSVLLTCIHFV,0.256 ± 0.0041,0.537 ± 0.031,0.65 ± 0.042,0.482 ± 0.013,0.598 ± 0.01,0.164 ± 0.023,0.176 ± 0.026,0.333 ± 0.014
GNRDLVNTSVEG,0.547 ± 0.17,0.679 ± 0.029,0.721 ± 0.011,0.619 ± 0.045,0.715 ± 0.051,0.6331 ± 0.006,0.633 ± 0.033,0.6989 ± 0.0025
GPVRSPPSPTPR,0.727 ± 0.05,0.674 ± 0.03,0.737 ± 0.0096,0.682 ± 0.015,0.73559 ± 0.00023,0.674 ± 0.024,0.66 ± 0.027,0.698 ± 0.014
GQFVISVRFLYE,0.515 ± 0.068,0.454 ± 0.045,0.503 ± 0.044,0.412 ± 0.024,0.5374 ± 0.0031,0.389 ± 0.0083,0.417 ± 0.024,0.516 ± 0.011
GRGVRLRVRLLL,0.292 ± 0.1,0.664 ± 0.023,0.73 ± 0.031,0.606 ± 0.022,0.7 ± 0.019,0.185 ± 0.014,0.217 ± 0.006,0.43 ± 0.04
GRVETIEFLFLR,0.464 ± 0.025,0.455 ± 0.0049,0.4335 ± 0.0015,0.368 ± 0.038,0.525 ± 0.0074,0.656 ± 0.012,0.394 ± 0.044,0.508 ± 0.022
GRWAFFTWLRWS,0.261 ± 0.014,0.553 ± 0.016,0.674 ± 0.016,0.62 ± 0.047,0.6825 ± 0.0042,0.175 ± 0.0041,0.177 ± 0.025,0.269 ± 0.047
GSDGVGGTVLYA,0.687 ± 0.037,0.685 ± 0.061,0.755 ± 0.014,0.634 ± 0.021,0.729 ± 0.015,0.638 ± 0.013,0.666 ± 0.023,0.728 ± 0.035
GSLVLSCLMSRA,0.4872 ± 0.00045,0.558 ± 0.04,0.603 ± 0.018,0.42 ± 0.034,0.573 ± 0.0029,0.431 ± 0.037,0.438 ± 0.012,0.537 ± 0.02
GTIFLIRVLLFG,0.284 ± 0.028,0.154 ± 0.0049,0.284 ± 0.026,0.222 ± 0.024,0.387 ± 0.029,0.171 ± 0.015,0.213 ± 0.023,0.357 ± 0.069
GVARALFLWKAV,0.379 ± 0.041,0.64 ± 0.032,0.709 ± 0.018,0.65 ± 0.022,0.7486 ± 0.0021,0.286 ± 0.0013,0.317 ± 0.03,0.464 ± 0.0088

Sequence,protein stability index (Saccharomyces cerevisiae [1]),protein stability index (Saccharomyces cerevisiae [2]; [3]),protein stability index (Saccharomyces cerevisiae [2]; [4]),protein stability index (Saccharomyces cerevisiae [2]; [5]),protein stability index (Saccharomyces cerevisiae [2]; [6]),protein stability index (Saccharomyces cerevisiae [2]; [7]),protein stability index (Saccharomyces cerevisiae [2]; [8]),protein stability index (Saccharomyces cerevisiae [2]; [9])
GVLTVVLQVGVV,0.393 ± 0.0095,0.299 ± 0.033,0.378 ± 0.053,0.309 ± 0.038,0.428 ± 0.019,0.282 ± 0.011,0.304 ± 0.02,0.407 ± 0.0063
GVMICLDLLLSV,0.468 ± 0.0081,0.482 ± 0.011,0.521 ± 0.021,0.377 ± 0.025,0.539 ± 0.014,0.361 ± 0.018,0.395 ± 0.017,0.528 ± 0.0073
GVVCCGFFFLVV,0.464 ± 0.016,0.475 ± 0.012,0.525 ± 0.028,0.401 ± 0.024,0.57 ± 0.018,0.363 ± 0.0058,0.41 ± 0.04,0.528 ± 0.055
GWCLLRVLVLVW,0.175 ± 0.022,0.0502 ± 0.035,0.043 ± 0.0082,0.0937 ± 0.023,0.107 ± 0.0087,0.104 ± 0.024,0.0811 ± 0.02,0.0921 ± 0.035
GYRRCCHFLFTL,0.423 ± 0.034,0.671 ± 0.02,0.735 ± 0.035,0.622 ± 0.023,0.747 ± 0.00099,0.359 ± 0.023,0.375 ± 0.029,0.56 ± 0.0064
HHRLRQGLRRIN,0.462 ± 0.014,0.64 ± 0.039,0.7278 ± 0.0055,0.638 ± 0.0082,0.7023 ± 0.003,0.251 ± 0.0034,0.293 ± 0.0082,0.5161 ± 0.0011
HPPPTLVPPHPR,0.616 ± 0.19,0.64 ± 0.032,0.709 ± 0.031,0.674 ± 0.011,0.727 ± 0.0074,0.7045 ± 0.0028,0.681 ± 0.019,0.6803 ± 0.0027
HRLQFKGYPICA,0.33 ± 0.0051,0.243 ± 0.039,0.255 ± 0.067,0.235 ± 0.048,0.371 ± 0.015,0.18 ± 0.0058,0.223 ± 0.025,0.338 ± 0.0061
HRPRPLLKLLAS,0.145 ± 0.011,–,0.596 ± 0.098,0.585 ± 0.083,0.67983 ± 0.0006,0.0522 ± 0.045,0.0779 ± 0.044,0.0284 ± 0.018
HSRRRRPTPQSL,0.571 ± 0.12,0.609 ± 0.047,0.65 ± 0.016,0.651 ± 0.036,0.636 ± 0.011,0.662 ± 0.014,0.64 ± 0.019,0.61 ± 0.016
HVCKLAMFQWYF,0.371 ± 0.018,0.6 ± 0.011,0.713 ± 0.031,0.609 ± 0.012,0.72211 ± 0.00042,0.2873 ± 0.0019,0.302 ± 0.02,0.533 ± 0.029
ICIFWLITGLWL,0.3884 ± 0.00079,0.465 ± 0.074,0.459 ± 0.026,0.336 ± 0.03,0.487 ± 0.019,0.304 ± 0.014,0.324 ± 0.013,0.4633 ± 0.0029
IFLCRNGAVFIC,0.158 ± 0.015,0.398 ± 0.07,0.7987 ± 0.0065,0.733 ± 0.016,0.872 ± 0.019,0.0808 ± 0.021,0.0798 ± 0.016,0.0995 ± 0.012
IFRVTGFPIYIF,0.297 ± 0.012,0.327 ± 0.045,0.36 ± 0.024,0.339 ± 0.021,0.4535 ± 0.0037,0.222 ± 0.014,0.233 ± 0.025,0.3522 ± 0.0011
IGFSPSFQLYSA,0.721 ± 0.0083,0.726 ± 0.0078,0.756 ± 0.012,0.666 ± 0.0083,0.77318 ± 9.2e-05,0.6445 ± 0.0049,0.67 ± 0.016,0.747 ± 0.012
IGILVTAVPVFD,0.451 ± 0.012,0.507 ± 0.057,0.518 ± 0.0058,0.386 ± 0.042,0.5522 ± 0.0021,0.343 ± 0.013,0.382 ± 0.021,0.529 ± 0.011
IIAGVWFLEILG,0.479 ± 0.015,0.4134 ± 0.0039,0.525 ± 0.009,0.333 ± 0.027,0.527 ± 0.012,0.308 ± 0.012,0.312 ± 0.022,0.497 ± 0.023
IIGCIAICLMVN,0.0843 ± 0.012,0.0164 ± 0.0065,0.214 ± 0.25,0.0942 ± 0.042,0.0938 ± 0.019,0.0381 ± 0.015,0.0451 ± 0.016,0.0405 ± 0.027
IKCVPLVWRLTV,0.272 ± 0.031,0.457 ± 0.0073,0.594 ± 0.045,0.534 ± 0.038,0.6384 ± 0.0023,0.109 ± 0.022,0.123 ± 0.02,0.1955 ± 0.001

# Reference: the supplement of paper PMC10724198
